Series [1] deals with the molecule itself. Briefly: crystal structure; DNA-free crystals; dimer seen between adjacent molecules in the crystal, with an intermolecular disulfide bond; protein purified with TCEP.
Series [2] concerns the molecule itself. Put plainly: SEC; protein expressed in Rosetta-gami 2 E. coli and purified under nonreducing conditions (no TCEP); Superdex S75 or 200, 20 mM HEPES pH 7.5, 500 mM NaCl, 5% glycerol; dimer checked by SDS-PAGE with or without DTT and by mass spectrometry. (In general: SEC sorts molecules by how far they enter the pores of the column.)
Another series addresses Etv5 Ets domain (human, UniProt P41161 365-462). Put plainly: X-ray crystallography; 1.95 A; Ca2+ bound near alpha4; EMSA: 50 mM Tris-HCl pH 7.5, 50 mM NaCl, 2 mM MgCl2, 0.01% Tween 20, 5% glycerol, 1 h at room temperature; proteins reduced with 10 mM TCEP unless stated; 10% native PAGE. The note with it: protein: recombinant; tags: N-terminal His6 removed by TEV (leaves SM); 3' overhang 1 nt on each strand. Background: Mobility shift assays separate free from complexed probe on a gel.

Another series concerns the target Etv4 Ets domain (human, UniProt P43268 338-470). Briefly: X-ray crystallography; 2.8 A; 8 complexes per asymmetric unit; EMSA: 50 mM Tris-HCl pH 7.5, 50 mM NaCl, 2 mM MgCl2, 0.01% Tween 20, 5% glycerol, 1 h at room temperature; proteins reduced with 10 mM TCEP unless stated; 10% native PAGE. Conditions: protein: recombinant; tags: N-terminal His6 removed by TEV (leaves SM); 3' overhang 1 nt on each strand.

The target of another series is Etv1 Y329S-P427S (human, UniProt P50549 326-429, Y329S;P427S). Put plainly: X-ray crystallography; 2.9 A; EMSA: 50 mM Tris-HCl pH 7.5, 50 mM NaCl, 2 mM MgCl2, 0.01% Tween 20, 5% glycerol, 1 h at room temperature; proteins reduced with 10 mM TCEP unless stated; 10% native PAGE. Conditions: protein: recombinant; tags: N-terminal His6 removed by TEV (leaves SM); blunt.
For another series, the target named is T1, Fev Ets domain (human, UniProt Q99581 42-141).
T1 sequence: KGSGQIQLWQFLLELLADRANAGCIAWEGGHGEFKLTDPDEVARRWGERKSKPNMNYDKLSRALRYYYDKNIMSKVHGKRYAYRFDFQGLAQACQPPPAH
Put plainly: X-ray crystallography; text cites 2YPR for the complex, but Fig. 1 uses 2YPR as Fev and Fig. 7 gives 3ZP5 as Fev-dsDNA; EMSA: 50 mM Tris-HCl pH 7.5, 50 mM NaCl, 2 mM MgCl2, 0.01% Tween 20, 5% glycerol, 1 h at room temperature; proteins reduced with 10 mM TCEP unless stated; 10% native PAGE. Conditions: protein: recombinant; tags: N-terminal His6 removed by TEV (leaves SM); chain copies: 2; blunt.

This is an account of results in paper PMC4447949, “Structures of the Ets Protein DNA-binding Domains of Transcription Factors Etv1, Etv4, Etv5, and Fev” (The Journal of Biological Chemistry, 2015).

Where a chain is given by its changes, count along the chain named. Numbers in names are those of the source.

B1: Fev Ets domain (amino acids 42-141) (domain or fragment, human, UniProt Q99581 42-141, looked up)
chain: T1 sequence
notes: Fev (Fifth Ewing Variant, PET-1), Ets domain construct, amino acids 42-141; TEV cleavage leaves SM before the insert; also called Fifth Ewing Variant; PET-1; source: E. coli BL21 (DE3) Rosetta-R3, purified (Ni-IDA, TEV cleavage, SEC); not shown: His6, N-terminal, cleaved
B1: the binding result in series [1] was “binds”.

B2: Etv4 Ets domain (amino acids 338-470) (domain or fragment, human, UniProt P43268 338-470, looked up)
chain: RGALQLWQFLVALLDDPTNAHFIAWTGRGMEFKLIEPEEVARLWGIQKNRPAMNYDKLSRSLRYYYEKGIMQKVAGERYVYKFVCEPEALFSLAFPDNQRPALKAEFDRPVSEEDTVPLSHLDESPAYLPELA
notes: Etv4 (PEA3), Ets domain construct, amino acids 338-470; TEV cleavage leaves SM before the insert; The limits are those told for the crystallised construct; also called PEA3; Etv4 WT; source: E. coli BL21 (DE3) Rosetta-R3, purified with TCEP (Ni-IDA, TEV cleavage, SEC); E. coli Rosetta-gami 2, purified without TCEP; not shown: His6, N-terminal, cleaved
The term stoichiometry N denotes the number of molecules, sites or subunits per partner or assembly. In the case of B2, the “stoichiometry N” value in series [2] came to 2.

B3: 9-bp crystallization duplex with overhangs (dsDNA)
DNA 1: ACCGGAAGTG
DNA 2: ACTTCCGGTC
Regarding B3, the binding result in the series with Etv5 Ets domain and with Etv4 Ets domain was “binds” each time.

B4: 10-bp crystallization duplex (dsDNA)
DNA 1: ACCGGAAGTG
DNA 2: CACTTCCGGT
For B4, the binding result in the series with Etv1 Y329S-P427S and with Fev Ets domain was “binds” in each case.

B5: Etv5 Ets domain (amino acids 365-462) (domain or fragment, human, UniProt P41161 365-462, looked up)
chain: RGSLQLWQFLVTLLDDPANAHFIAWTGRGMEFKLIEPEEVARRWGIQKNRPAMNYDKLSRSLRYYYEKGIMQKVAGERYVYKFVCDPDALFSMAFPDN
notes: Etv5 (ERM), Ets domain construct, amino acids 365-462; TEV cleavage leaves SM before the insert; The limits are those told for the crystallisation construct; also called ERM; Etv5 WT; source: E. coli BL21 (DE3) Rosetta-R3, purified with TCEP (Ni-IDA, TEV cleavage, SEC); E. coli Rosetta-gami 2, purified without TCEP; not shown: His6, N-terminal, cleaved
On to B5, for which, in series [2], the “stoichiometry N” value worked out at 2.

B6: Etv1^Y329S-P427S Ets domain (amino acids 326-429) (domain or fragment, human, UniProt P50549 326-429, looked up)
chain: GPTSQRRGSLQLWQFLVALLDDPSNSHFIAWTGRGMEFKLIEPEEVARRWGIQKNRPAMNYDKLSRSLRYYYEKGIMQKVAGERYVYKFVCDPEALFSMAFSDN
notes: Etv1 (Ets translocation variant 1, ER81), Ets domain construct, amino acids 326-429, with two primer-incorporated mutations; A selenomethionine form was used for phasing of the DNA complex; also called PCR mutant Ets domain; ER81; source: E. coli BL21 (DE3) Rosetta-R3, purified (Ni-IDA, TEV cleavage, SEC); not shown: His6, N-terminal, cleaved
On to B6, for which the binding result in series [1] is “binds”.

B7: Etv1 wild-type Ets domain (amino acids 326-429) (domain or fragment, human, UniProt P50549 326-429, looked up)
chain: B6 chain with S4Y, S102P
notes: Same limits as the crystallised Y329S-P427S construct (PDB 4AVP, 4BNC); TEV cleavage leaves SM before the insert; From Rosetta-gami 2 under nonreducing conditions it is a disulfide-linked dimer; also called WT; WT dimer; source: E. coli BL21 (DE3) Rosetta-R3, purified with TCEP (Ni-IDA, TEV cleavage, SEC); E. coli Rosetta-gami 2, purified without TCEP; not shown: His6, N-terminal, cleaved
Take B7: the “stoichiometry N” value in series [2] amounted to 2.
